The results in this text go back to article doi:10.1101/2023.09.17.558134 (bioRxiv, 2023).

For assay [1], the target named is RNA polymerase β subunit (in the purified holoenzyme) (E. coli, UniProt P0A8V2 1-1342). Put plainly: cryo-EM structure.
Assay [2] concerns the target σ70 (purified) (E. coli, UniProt P00579 1-613). Put plainly: cryo-EM structure.

Chain of σ70 (purified) (P00579 whole entry): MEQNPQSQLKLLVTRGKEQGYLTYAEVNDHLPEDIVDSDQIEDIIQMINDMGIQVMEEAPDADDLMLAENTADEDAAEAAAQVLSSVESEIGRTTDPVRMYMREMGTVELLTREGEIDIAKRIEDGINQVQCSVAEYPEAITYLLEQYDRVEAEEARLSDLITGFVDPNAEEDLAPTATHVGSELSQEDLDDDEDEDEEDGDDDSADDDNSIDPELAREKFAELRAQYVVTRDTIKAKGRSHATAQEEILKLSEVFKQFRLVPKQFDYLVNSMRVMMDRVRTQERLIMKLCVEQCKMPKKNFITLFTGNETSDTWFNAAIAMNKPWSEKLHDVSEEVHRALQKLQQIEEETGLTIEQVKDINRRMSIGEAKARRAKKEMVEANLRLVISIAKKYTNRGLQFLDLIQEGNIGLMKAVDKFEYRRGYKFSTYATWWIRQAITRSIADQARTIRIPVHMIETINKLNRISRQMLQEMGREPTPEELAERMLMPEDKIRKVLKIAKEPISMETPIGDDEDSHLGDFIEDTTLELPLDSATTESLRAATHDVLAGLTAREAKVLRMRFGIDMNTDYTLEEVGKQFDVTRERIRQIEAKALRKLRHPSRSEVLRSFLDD
Chain of RNA polymerase β subunit (in the purified holoenzyme) (P0A8V2 whole entry): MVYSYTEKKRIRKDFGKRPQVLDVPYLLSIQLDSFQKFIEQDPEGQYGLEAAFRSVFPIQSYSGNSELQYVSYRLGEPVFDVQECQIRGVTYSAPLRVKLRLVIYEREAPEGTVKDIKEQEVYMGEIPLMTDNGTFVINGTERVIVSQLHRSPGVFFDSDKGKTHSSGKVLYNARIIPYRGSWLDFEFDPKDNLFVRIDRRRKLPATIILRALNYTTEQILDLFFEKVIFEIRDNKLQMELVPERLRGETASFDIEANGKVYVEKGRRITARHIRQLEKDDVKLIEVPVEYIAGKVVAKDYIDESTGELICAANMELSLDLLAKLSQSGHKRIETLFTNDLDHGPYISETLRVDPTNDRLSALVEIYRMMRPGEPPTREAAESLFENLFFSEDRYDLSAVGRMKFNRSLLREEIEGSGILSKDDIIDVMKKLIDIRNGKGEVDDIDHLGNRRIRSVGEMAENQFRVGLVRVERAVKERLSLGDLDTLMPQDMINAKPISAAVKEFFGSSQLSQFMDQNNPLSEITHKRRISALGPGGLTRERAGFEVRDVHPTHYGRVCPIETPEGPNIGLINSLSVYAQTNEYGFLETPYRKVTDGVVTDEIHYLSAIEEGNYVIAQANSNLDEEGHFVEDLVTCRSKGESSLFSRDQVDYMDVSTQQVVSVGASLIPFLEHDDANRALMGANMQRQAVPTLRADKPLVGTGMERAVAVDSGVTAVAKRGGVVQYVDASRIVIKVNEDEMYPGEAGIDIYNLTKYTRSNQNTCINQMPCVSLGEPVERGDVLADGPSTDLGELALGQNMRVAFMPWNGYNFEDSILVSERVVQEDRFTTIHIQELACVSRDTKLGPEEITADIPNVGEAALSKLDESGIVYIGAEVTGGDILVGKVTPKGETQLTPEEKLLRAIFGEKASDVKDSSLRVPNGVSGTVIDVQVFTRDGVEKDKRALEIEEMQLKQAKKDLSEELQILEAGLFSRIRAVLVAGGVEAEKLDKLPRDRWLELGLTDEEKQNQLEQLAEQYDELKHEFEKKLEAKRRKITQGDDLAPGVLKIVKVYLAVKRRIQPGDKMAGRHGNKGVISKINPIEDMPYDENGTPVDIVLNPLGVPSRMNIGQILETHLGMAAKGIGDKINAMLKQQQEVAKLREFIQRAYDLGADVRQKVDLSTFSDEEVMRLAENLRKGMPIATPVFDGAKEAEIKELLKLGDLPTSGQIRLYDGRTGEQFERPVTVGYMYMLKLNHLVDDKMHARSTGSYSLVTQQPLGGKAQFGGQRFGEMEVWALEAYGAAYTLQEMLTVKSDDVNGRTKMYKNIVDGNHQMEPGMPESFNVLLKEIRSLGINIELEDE

B1: CedA (purified recombinant) (natural protein)
chain: MKKPLRQQNRQIISYVPRTEPAPPEHAIKMDSFRDVWMLRGKYVAFVLMGESFLRSPAFTVPESAQRWANQIRQEGEVTE
Turning to B1, the binding result in assay [1] and in assay [2] was “binds” throughout.
